The record followed here is US10500249B2, “Compositions and methods for preventing or treating diseases, conditions, or processes characterized by aberrant fibroblast proliferation and extracellular matrix deposition” (MOERAE MATRIX, INC., priority 2014, dated 2019).

Common to all, as to assay: Kinase Profiling Assay
Common to all, as to conditions: 100 μM

Test [1] has as its system CaMKI (h). The format is biochemical, human. As for the experimental part:
(§1) Every kinase activity measurement was conducted in duplicate.
(§2) Specifically, in these assays, a positively charged substrate is phosphorylated with a radiolabeled phosphate group from an ATP if the kinase is not inhibited by an inhibitor peptide. The positively charged substrate then is attracted to a negatively charged filter membrane, quantified with a scintillation counter, and compared to a 100% activity control.
(§3) In addition to determining the IC50 of the compound, the specificity of MK2 inhibitory peptides was assessed by examining activities of all 266 human kinases available for testing in the Millipore kinase profiling service (Table 1).

Test [2] deals with MLCK (h). The format is biochemical, human. Here is the method: as §1, §2, §3
Test [3] concerns the target T1, EphA8 (h) (Homo sapiens, UniProt P29322).
T1 sequence (P29322 28-1005): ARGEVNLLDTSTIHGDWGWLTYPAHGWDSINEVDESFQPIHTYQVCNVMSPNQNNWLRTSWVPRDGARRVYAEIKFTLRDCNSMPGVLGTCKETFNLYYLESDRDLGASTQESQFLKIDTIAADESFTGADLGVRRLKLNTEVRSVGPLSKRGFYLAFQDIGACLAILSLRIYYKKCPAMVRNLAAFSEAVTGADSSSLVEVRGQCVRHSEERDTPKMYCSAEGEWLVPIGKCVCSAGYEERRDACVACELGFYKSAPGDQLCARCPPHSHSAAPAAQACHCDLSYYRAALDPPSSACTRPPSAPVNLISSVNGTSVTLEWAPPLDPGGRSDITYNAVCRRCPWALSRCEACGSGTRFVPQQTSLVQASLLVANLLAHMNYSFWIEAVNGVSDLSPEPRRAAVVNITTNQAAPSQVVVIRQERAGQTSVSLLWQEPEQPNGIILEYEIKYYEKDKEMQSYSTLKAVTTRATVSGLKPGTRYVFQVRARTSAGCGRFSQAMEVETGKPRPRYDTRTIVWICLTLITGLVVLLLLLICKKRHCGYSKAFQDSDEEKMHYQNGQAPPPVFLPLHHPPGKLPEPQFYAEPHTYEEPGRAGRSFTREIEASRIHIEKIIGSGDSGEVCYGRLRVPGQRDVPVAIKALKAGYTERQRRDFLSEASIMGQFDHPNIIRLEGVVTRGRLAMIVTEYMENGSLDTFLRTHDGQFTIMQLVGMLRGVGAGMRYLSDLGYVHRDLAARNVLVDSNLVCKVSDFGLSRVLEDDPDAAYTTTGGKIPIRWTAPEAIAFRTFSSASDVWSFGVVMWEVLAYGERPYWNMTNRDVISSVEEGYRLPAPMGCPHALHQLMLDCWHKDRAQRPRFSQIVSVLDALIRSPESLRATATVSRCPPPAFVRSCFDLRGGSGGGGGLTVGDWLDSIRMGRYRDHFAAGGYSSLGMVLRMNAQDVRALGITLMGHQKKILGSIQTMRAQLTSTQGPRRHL
In kind it is biochemical. The method in brief: (§4)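 Each kinase activity was measured in duplicate. Phosphorylation of a positively charged substrate with radiolabeled phosphate from ATP was captured on a negatively charged filter, counted by scintillation and expressed relative to a 100% activity control. MK2 inhibitory peptides were screened for specificity across 266 human kinases.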

The target in test [4] is T2, PKBβ (h) (Homo sapiens, UniProt P31751).
T2 construct: purchased Millipore
The format is biochemical. The method in brief: as §4

Test [5] has as its target T3, Pim-3 (h) (Homo sapiens, UniProt Q86V86).
T3 construct: purchased Millipore
In kind it is biochemical. Put shortly:
as §4

Test [6] deals with T4, PDGFRα (V561D) (h) (Homo sapiens, UniProt P16234, V561D).
T4 construct: purchased Millipore
In kind it is biochemical. The method in brief:
as §4

For test [7], the target named is Flt1 (h) (Homo sapiens, UniProt P17948). The format is biochemical. Put shortly: as §4
The target of test [8] is T5, NEK7 (h) (Homo sapiens, UniProt Q8TDX7).
T5 construct: purchased Millipore
T5 sequence (Q8TDX7 whole entry): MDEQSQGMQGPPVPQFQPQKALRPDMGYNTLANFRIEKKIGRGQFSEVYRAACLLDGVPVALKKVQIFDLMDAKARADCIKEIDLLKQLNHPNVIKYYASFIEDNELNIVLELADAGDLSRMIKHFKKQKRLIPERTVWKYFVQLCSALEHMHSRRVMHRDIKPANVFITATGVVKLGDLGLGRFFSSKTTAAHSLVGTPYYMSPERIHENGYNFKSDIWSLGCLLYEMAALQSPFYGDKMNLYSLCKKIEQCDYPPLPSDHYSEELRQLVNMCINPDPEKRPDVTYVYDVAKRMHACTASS
In kind it is biochemical. Put shortly:
as §4

For test [9], the target named is T6, CDK9/cyclin T1 (h) (Homo sapiens, UniProt P50750).
T6 construct: purchased Millipore
The format is biochemical. Put shortly:
as §4

Test [10] deals with T7, CK1δ (h) (Homo sapiens, UniProt P48730).
T7 construct: purchased Millipore
T7 sequence (P48730 whole entry): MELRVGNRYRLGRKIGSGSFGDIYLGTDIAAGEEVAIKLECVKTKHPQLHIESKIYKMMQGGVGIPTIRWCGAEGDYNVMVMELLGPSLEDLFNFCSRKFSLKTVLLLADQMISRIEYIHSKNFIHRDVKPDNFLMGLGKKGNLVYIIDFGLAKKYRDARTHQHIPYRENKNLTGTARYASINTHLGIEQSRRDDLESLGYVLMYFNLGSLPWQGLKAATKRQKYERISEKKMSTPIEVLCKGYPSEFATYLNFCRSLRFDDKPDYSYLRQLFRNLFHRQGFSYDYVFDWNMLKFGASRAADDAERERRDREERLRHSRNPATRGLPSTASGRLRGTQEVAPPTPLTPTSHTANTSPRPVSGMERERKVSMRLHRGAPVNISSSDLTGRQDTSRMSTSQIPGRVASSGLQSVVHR
In kind it is biochemical. The method in brief: as §4

In test [11] the target is T8, IRR (h) (Homo sapiens, UniProt P14616).
T8 construct: purchased Millipore
T8 sequence (P14616 27-1297): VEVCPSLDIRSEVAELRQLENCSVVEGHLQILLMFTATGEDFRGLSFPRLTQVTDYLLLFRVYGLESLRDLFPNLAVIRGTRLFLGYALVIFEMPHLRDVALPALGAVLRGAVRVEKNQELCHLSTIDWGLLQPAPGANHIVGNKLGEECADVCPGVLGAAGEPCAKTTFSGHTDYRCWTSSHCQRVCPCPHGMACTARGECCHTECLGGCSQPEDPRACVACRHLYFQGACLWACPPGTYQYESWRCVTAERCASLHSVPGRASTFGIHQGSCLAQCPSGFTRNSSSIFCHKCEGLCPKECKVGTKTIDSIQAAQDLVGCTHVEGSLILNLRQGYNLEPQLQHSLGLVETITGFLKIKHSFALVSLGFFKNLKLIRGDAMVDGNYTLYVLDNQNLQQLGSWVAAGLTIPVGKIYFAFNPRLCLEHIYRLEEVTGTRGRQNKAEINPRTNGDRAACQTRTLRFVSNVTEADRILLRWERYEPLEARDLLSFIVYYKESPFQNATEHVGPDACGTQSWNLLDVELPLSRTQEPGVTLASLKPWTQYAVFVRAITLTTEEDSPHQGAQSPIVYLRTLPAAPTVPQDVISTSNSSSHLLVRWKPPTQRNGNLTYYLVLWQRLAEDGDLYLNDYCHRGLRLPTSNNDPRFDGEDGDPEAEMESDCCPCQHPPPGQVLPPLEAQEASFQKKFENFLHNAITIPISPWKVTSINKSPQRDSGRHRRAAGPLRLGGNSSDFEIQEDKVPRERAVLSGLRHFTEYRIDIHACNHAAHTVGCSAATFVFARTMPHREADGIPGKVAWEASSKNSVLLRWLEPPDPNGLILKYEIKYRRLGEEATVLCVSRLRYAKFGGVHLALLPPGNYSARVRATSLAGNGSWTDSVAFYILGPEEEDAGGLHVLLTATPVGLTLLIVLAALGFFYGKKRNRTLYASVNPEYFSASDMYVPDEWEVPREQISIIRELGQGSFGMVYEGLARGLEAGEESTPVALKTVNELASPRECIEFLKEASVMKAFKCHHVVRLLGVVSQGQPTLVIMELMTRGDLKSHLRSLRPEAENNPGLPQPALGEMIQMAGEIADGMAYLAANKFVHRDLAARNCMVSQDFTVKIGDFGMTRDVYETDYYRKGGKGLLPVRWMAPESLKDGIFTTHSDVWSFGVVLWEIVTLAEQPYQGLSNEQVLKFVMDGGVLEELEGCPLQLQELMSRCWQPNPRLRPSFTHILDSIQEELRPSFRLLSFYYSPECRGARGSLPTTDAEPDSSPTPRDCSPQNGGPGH
In kind it is biochemical. The method in brief: as §4

The target of test [12] is Tie2(Y897S) (h) (Homo sapiens, UniProt Q02763, Y897S). In kind it is biochemical. Put shortly:
as §4

Test [13] deals with PRK2 (h) (Homo sapiens, UniProt Q16513). The format is biochemical. The method in brief:
as §4

Test [14] addresses MAPKAP-K3 (h) (Homo sapiens, UniProt Q16644). In kind it is biochemical. The method in brief: as §4
In test [15] the target is T9, MRCKβ (h) (Homo sapiens, UniProt Q9Y5S2).
T9 construct: purchased Millipore
T9 sequence (Q9Y5S2 whole entry): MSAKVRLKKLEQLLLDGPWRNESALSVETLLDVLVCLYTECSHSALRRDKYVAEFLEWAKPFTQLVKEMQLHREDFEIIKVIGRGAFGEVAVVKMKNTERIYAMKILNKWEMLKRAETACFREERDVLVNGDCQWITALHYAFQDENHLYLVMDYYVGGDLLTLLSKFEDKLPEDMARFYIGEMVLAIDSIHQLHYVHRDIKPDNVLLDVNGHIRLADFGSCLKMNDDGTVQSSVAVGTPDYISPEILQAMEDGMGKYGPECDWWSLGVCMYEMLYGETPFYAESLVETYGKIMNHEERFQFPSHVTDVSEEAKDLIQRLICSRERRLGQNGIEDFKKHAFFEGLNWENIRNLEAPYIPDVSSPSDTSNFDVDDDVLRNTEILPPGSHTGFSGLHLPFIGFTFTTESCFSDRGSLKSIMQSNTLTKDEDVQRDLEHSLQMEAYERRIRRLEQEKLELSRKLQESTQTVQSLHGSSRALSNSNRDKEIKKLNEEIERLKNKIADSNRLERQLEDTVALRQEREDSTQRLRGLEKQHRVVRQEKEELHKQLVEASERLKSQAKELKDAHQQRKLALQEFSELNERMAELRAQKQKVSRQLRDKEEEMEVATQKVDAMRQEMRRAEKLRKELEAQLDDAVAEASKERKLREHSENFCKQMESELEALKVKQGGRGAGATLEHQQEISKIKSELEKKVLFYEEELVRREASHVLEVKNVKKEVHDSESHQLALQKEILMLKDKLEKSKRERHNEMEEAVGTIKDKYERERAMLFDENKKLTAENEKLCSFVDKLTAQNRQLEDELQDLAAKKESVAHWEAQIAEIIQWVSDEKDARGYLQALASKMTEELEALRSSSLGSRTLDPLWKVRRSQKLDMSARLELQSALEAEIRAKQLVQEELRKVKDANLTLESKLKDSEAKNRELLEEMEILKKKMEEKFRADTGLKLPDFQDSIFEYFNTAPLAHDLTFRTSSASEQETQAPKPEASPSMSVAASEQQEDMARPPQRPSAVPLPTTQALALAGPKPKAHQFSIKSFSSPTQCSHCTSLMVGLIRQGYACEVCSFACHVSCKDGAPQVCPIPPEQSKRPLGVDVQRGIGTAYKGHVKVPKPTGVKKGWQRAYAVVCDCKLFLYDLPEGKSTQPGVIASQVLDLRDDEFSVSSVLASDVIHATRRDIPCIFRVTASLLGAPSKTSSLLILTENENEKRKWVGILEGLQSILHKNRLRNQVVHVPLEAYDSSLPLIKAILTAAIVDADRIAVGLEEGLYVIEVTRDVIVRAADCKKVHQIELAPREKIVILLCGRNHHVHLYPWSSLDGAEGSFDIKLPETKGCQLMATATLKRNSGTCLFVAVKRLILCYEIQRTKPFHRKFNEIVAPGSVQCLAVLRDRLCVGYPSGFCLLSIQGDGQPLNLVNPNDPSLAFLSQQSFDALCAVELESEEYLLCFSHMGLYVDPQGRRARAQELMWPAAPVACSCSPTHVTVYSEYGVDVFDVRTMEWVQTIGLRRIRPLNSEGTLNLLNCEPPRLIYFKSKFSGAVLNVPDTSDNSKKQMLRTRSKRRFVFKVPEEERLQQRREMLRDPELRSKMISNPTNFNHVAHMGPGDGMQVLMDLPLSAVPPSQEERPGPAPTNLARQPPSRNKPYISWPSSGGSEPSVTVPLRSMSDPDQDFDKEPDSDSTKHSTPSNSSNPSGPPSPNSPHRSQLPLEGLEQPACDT
The format is biochemical. The method in brief:
as §4

For test [16], the target named is Met(D1246H) (h) (Homo sapiens, UniProt P08581, D1228H). The format is biochemical. Put shortly: as §4
Test [17] deals with LOK (h) (Homo sapiens, UniProt O94804). The format is biochemical. The method in brief:
as §4

For test [18], the target named is T10, PDK1 (h) (Homo sapiens, UniProt O15530).
T10 construct: purchased Millipore
T10 sequence (O15530 1-556): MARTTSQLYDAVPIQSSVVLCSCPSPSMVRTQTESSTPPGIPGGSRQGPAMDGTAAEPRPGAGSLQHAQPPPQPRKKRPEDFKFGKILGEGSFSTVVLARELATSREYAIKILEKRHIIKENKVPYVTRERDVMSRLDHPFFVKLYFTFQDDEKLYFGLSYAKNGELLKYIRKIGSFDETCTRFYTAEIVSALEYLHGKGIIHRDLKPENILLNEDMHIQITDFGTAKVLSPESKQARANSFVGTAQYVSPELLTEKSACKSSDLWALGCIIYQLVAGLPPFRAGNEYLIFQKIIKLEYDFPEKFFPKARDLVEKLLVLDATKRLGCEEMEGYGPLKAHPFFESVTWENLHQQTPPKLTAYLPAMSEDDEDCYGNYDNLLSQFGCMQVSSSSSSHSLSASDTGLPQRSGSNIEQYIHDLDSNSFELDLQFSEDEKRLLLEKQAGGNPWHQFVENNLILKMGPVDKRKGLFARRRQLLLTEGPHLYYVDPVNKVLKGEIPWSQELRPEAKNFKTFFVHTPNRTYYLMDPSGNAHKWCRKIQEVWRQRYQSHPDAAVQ
In kind it is biochemical. Put shortly:
as §4

The target of test [19] is VRK2 (h) (Homo sapiens, UniProt Q86Y07). The format is biochemical. The method in brief:
as §4

PRK2 (h), sequence (Q16513 whole entry): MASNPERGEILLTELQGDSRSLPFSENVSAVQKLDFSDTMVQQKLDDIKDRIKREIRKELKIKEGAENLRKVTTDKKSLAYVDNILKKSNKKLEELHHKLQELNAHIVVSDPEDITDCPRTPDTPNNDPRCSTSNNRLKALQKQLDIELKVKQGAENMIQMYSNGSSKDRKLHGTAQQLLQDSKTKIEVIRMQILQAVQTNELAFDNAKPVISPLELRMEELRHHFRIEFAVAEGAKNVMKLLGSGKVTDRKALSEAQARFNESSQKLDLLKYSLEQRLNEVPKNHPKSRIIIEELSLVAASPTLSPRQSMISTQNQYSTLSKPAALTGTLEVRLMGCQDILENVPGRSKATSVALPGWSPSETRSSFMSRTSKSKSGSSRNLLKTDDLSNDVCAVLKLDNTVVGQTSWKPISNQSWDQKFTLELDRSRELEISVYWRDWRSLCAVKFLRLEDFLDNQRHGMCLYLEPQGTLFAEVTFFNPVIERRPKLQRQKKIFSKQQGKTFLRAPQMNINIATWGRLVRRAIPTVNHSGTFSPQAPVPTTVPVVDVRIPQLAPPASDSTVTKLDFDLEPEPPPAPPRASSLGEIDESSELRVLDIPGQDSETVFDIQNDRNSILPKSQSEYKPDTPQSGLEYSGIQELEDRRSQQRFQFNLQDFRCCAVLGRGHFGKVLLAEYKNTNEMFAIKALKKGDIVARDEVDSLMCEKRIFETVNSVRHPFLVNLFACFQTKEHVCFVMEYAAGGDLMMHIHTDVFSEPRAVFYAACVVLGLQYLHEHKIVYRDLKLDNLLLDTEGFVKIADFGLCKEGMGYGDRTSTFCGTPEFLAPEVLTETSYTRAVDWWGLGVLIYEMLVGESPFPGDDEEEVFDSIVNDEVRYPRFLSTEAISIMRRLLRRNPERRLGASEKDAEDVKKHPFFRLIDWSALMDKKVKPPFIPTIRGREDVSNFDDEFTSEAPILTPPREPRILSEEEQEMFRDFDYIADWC
MAPKAP-K3 (h), sequence (Q16644 whole entry): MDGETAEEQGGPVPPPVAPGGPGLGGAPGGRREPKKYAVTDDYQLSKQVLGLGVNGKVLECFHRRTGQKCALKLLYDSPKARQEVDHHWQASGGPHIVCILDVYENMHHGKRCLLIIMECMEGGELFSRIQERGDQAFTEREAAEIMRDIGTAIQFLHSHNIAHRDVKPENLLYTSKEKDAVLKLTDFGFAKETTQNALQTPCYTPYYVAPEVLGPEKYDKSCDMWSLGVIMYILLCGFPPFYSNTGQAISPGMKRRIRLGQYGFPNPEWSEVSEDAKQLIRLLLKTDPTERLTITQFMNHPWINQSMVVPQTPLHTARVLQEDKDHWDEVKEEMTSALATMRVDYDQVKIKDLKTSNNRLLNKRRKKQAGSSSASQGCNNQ

Turning to FAKLAARLYRKALARQLGVAA [MMI-0300], the “% activity” value in [1] is recorded as 1%; in test [2] it was 2%; in [3] it was 93%; in [4], 84%; in test [5], 80%; in [6] it was 82%. In addition, the “% activity” value in [7] worked out at 69%; in test [8], 84%; in test [9] it was 91%; in [10], 92%; in test [11], 8%; in test [12], 83%. Also, the “% activity” value in test [13] is 33%; in test [14], 3%; in test [15] it was 83%; in [16] it was 125%; in test [17], 37%; in test [18], 135%. Also, the “% activity” value in test [19] is reported as 161%.
Turning to KAFAKLAARLYRKALARQLGVAA [MMI-0400], the “% activity” value in test [1] is listed as 0%; in test [2], 1%; in [3] it was 146%; in test [4], 98%; in test [5] it was 80%; in [6] it was 100%. Moreover, the “% activity” value in test [7] was 48%; in test [8] it was 87%; in test [9] it was 235%; in test [10], 93%; in test [11], 8%; in test [12], 87%. Besides, the “% activity” value is 27% in [13]; 7% in test [14]; 71% in test [15]; 68% in [16]; 18% in [17]; 159% in test [18]. In test [19], the “% activity” value is on record as 185%.
Take “YARAAARQARAKALNRQLGVA (Mammalian) [MMI-0200]”: the “% activity” value in test [1] amounted to 21%; in [2], 103%; in test [3], 133%; in test [4], 250%; in test [5], 94%; in [7], 96%. The “% activity” value was found to be 96% in test [8]; 92% in test [10]; 69% in [11]; 85% in test [12]; 74% in test [13]; 39% in test [14]. Besides, the entries for the “% activity” value in test [16], in test [17] and in test [18] were 139%, 67% and 143%, respectively.
As to “HRRIKAWLKKIKALARQLGVAA (Mammalian) [MMI-0500]”, the “% activity” value is −1% in test [1]; 0% in test [2]; 337% in test [3]; 21% in test [4]; 37% in [5]; 146% in [6]. Besides, the “% activity” value in test [7] came out at 27%; in [8], 89%; in test [9], 6%; in [10], 78%; in [11], 10%; in test [12], 80%. The “% activity” value in test [13] was 7%; in test [14], 9%; in test [15], −10%; in test [16] it was 150%; in [17], 7%; in test [18] it was 178%. For the same sequence, the “% activity” value in [19] stood at 169%.
